This note sets out measurements from the supplement of paper PMC7125110.

± gives the standard error. For some of these results: Variants at the floor of the assay were thinned out. A value given as a limit tells only on which side of the number the result lay.

First the molecules themselves.
B1: glmS ribozyme (parent)
chain: AUAAAAGCGCCAGAACUACAGAAAUGUAGUUGACGAGGAGGAGGUUUAUCGAAUUUUCGGCGGAUGCCUCCAAA

Common to all, as to conditions: with glucosamine-6-phosphate
In data set [1] the parent is B1. In words: kcat; higher = faster cleavage; RNA array. Summed up: (§1)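 Weighted Michaelis–Menten fits across concentrations supplied kcat and KM, based on kobs from one- or two-exponential decay fits to normalised per-tile medians. The data came from barcoded ribozyme variants transcribed in situ by E. coli RNA polymerase on sequenced MiSeq chips and tracked at 37 °C by a hybridised Cy3 probe. Glucosamine-6-phosphate (40 μM to 10 mM) in HEPES/KCl/Mg(OAc)2 buffer was flowed in.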

Data set [2] covers variants of B1. In words: KM; higher = weaker cofactor use; RNA array. An outline of the steps:
as §1

The variants in data set [3] derive from B1. In words: self-cleavage kobs at 2500 uM GlcN6P; higher = faster cleavage; RNA array. An outline of the steps:
as §1

Variants of B1 are the subject of data set [4]. In words: self-cleavage kobs at 10000 uM GlcN6P; higher = faster cleavage; RNA array. Summed up:
as §1

In data set [5] the parent is B1. Briefly: self-cleavage kobs at 160 uM GlcN6P; higher = faster cleavage; RNA array. An outline of the steps: as §1
Variants of B1 are the subject of data set [6]. Briefly: self-cleavage kobs at 640 uM GlcN6P; higher = faster cleavage; RNA array. Summed up: as §1
The variants in data set [7] derive from B1. Briefly: self-cleavage kobs at 40 uM GlcN6P; higher = faster cleavage; RNA array. An outline of the steps:
as §1

As a reminder, the kcat is the number of substrate molecules converted per active site and unit of time at saturation. The term KM denotes the substrate concentration at which the rate is half of its maximum.

U46A C50U C58A C71G: the kcat with glucosamine-6-phosphate [1] came to 1.07e-05 ± 3e-06 s⁻¹.

For C10U A12G, in the data set with glucosamine-6-phosphate [1], the kcat stood at 2.19e-05 ± 1.8e-06 s⁻¹. The KM with glucosamine-6-phosphate [2] worked out at 2150 ± 870 µM.

Consider G29A G32C, for which the kcat with glucosamine-6-phosphate [1] came to 0.000144 ± 1.8e-05 s⁻¹. Moreover, the Michaelis constant (KM) with glucosamine-6-phosphate [2] came out at 5140 ± 1500 µM. Besides, the “self-cleavage kobs at 2500 uM GlcN6P” value with glucosamine-6-phosphate [3] turned out to be 5.01e-05 ± 9.3e-06 s⁻¹. Besides, in the data set with glucosamine-6-phosphate [4], the “self-cleavage kobs at 10000 uM GlcN6P” value worked out at 9.45e-05 ± 9.1e-06 s⁻¹.

Take C10G U56A: the kcat with glucosamine-6-phosphate [1] is less than 1e-05 s⁻¹. Further, the “self-cleavage kobs at 160 uM GlcN6P” value in the data set with glucosamine-6-phosphate [5] was less than 1e-05 s⁻¹. Besides, the “self-cleavage kobs at 640 uM GlcN6P” value with glucosamine-6-phosphate [6] was less than 1e-05 s⁻¹.

For G43U A52G, the kcat with glucosamine-6-phosphate [1] is less than 1e-05 s⁻¹. Besides, the KM in the data set with glucosamine-6-phosphate [2] turned out to be 5960 ± 590 µM. The “self-cleavage kobs at 40 uM GlcN6P” value with glucosamine-6-phosphate [7] is less than 1e-05 s⁻¹. Further, in the data set with glucosamine-6-phosphate [5], the “self-cleavage kobs at 160 uM GlcN6P” value is less than 1e-05 s⁻¹. Besides, in the data set with glucosamine-6-phosphate [6], the “self-cleavage kobs at 640 uM GlcN6P” value is less than 1e-05 s⁻¹.

Take A39C A42C: the kcat with glucosamine-6-phosphate [1] stood at 6.31e-05 ± 3.9e-06 s⁻¹. In addition, the KM in the data set with glucosamine-6-phosphate [2] amounted to 890 ± 270 µM. For the same variant, in the data set with glucosamine-6-phosphate [6], the “self-cleavage kobs at 640 uM GlcN6P” value came out at 3.24e-05 ± 1.5e-05 s⁻¹. In addition, the “self-cleavage kobs at 2500 uM GlcN6P” value with glucosamine-6-phosphate [3] is 4.41e-05 ± 9.6e-06 s⁻¹. The “self-cleavage kobs at 10000 uM GlcN6P” value with glucosamine-6-phosphate [4] is 5.88e-05 ± 8.3e-06 s⁻¹.

On to C8U C67A, for which the kcat with glucosamine-6-phosphate [1] was less than 1e-05 s⁻¹. For the same variant, the “self-cleavage kobs at 640 uM GlcN6P” value with glucosamine-6-phosphate [6] was less than 1e-05 s⁻¹.

Consider U49G U69G, for which, in the data set with glucosamine-6-phosphate [1], the kcat turned out to be 6.03e-05 ± 2.8e-05 s⁻¹. The “self-cleavage kobs at 640 uM GlcN6P” value with glucosamine-6-phosphate [6] was determined as 9.69e-05 ± 3.4e-05 s⁻¹. In the data set with glucosamine-6-phosphate [3], the “self-cleavage kobs at 2500 uM GlcN6P” value worked out at 9.67e-05 ± 2.8e-05 s⁻¹.

Take U30C C68G: in the data set with glucosamine-6-phosphate [1], the kcat amounted to 4.61e-05 ± 1.8e-05 s⁻¹. In addition, the “self-cleavage kobs at 40 uM GlcN6P” value with glucosamine-6-phosphate [7] worked out at 3.15e-05 ± 1.2e-05 s⁻¹. The “self-cleavage kobs at 160 uM GlcN6P” value with glucosamine-6-phosphate [5] was 5.26e-05 ± 1.7e-05 s⁻¹. In the data set with glucosamine-6-phosphate [6], the “self-cleavage kobs at 640 uM GlcN6P” value came to 8.37e-05 ± 1.7e-05 s⁻¹. Also, the “self-cleavage kobs at 2500 uM GlcN6P” value with glucosamine-6-phosphate [3] is 8.75e-05 ± 1.7e-05 s⁻¹. The “self-cleavage kobs at 10000 uM GlcN6P” value in the data set with glucosamine-6-phosphate [4] stood at 2.14e-05 ± 9.4e-06 s⁻¹.

Regarding G32C G51U, the kcat with glucosamine-6-phosphate [1] was less than 1e-05 s⁻¹.

Take A33C G37A: the kcat with glucosamine-6-phosphate [1] was less than 1e-05 s⁻¹. Besides, the “self-cleavage kobs at 40 uM GlcN6P” value in the data set with glucosamine-6-phosphate [7] is less than 1e-05 s⁻¹. Also, the “self-cleavage kobs at 160 uM GlcN6P” value with glucosamine-6-phosphate [5] was less than 1e-05 s⁻¹.

As for A48G C70A, the kcat with glucosamine-6-phosphate [1] turned out to be 4.63e-05 ± 4.7e-06 s⁻¹. Also, the “self-cleavage kobs at 2500 uM GlcN6P” value with glucosamine-6-phosphate [3] stood at 4.55e-05 ± 1.2e-05 s⁻¹. For the same variant, the “self-cleavage kobs at 10000 uM GlcN6P” value with glucosamine-6-phosphate [4] was 4.22e-05 ± 6.5e-06 s⁻¹.

For the variant C11A G40U, the turnover number (kcat) in the data set with glucosamine-6-phosphate [1] stood at 1.13e-05 ± 2e-06 s⁻¹. Also, the “self-cleavage kobs at 160 uM GlcN6P” value with glucosamine-6-phosphate [5] was less than 1e-05 s⁻¹. Moreover, in the data set with glucosamine-6-phosphate [6], the “self-cleavage kobs at 640 uM GlcN6P” value was less than 1e-05 s⁻¹.

Turning to G38U G40A, in the data set with glucosamine-6-phosphate [1], the kcat was less than 1e-05 s⁻¹.

For A14G G60A, the kcat with glucosamine-6-phosphate [1] amounted to 8.13e-05 ± 1.1e-05 s⁻¹. In the data set with glucosamine-6-phosphate [2], the KM was 3020 ± 1300 µM. Besides, in the data set with glucosamine-6-phosphate [3], the “self-cleavage kobs at 2500 uM GlcN6P” value came out at 4.34e-05 ± 1.9e-05 s⁻¹. For the same variant, the “self-cleavage kobs at 10000 uM GlcN6P” value in the data set with glucosamine-6-phosphate [4] was 6.17e-05 ± 1.2e-05 s⁻¹.

As to A39C G44A, the catalytic constant (kcat) in the data set with glucosamine-6-phosphate [1] came to 3.56e-05 ± 1.2e-05 s⁻¹. Also, the “self-cleavage kobs at 2500 uM GlcN6P” value with glucosamine-6-phosphate [3] came out at 5.47e-05 ± 1.1e-05 s⁻¹. Moreover, in the data set with glucosamine-6-phosphate [4], the “self-cleavage kobs at 10000 uM GlcN6P” value stood at 2.63e-05 ± 8.1e-06 s⁻¹.

A14U G66C: in the data set with glucosamine-6-phosphate [1], the kcat amounted to 0.000139 ± 1.3e-05 s⁻¹. Also, the KM in the data set with glucosamine-6-phosphate [2] stood at 5220 ± 1100 µM. In the data set with glucosamine-6-phosphate [3], the “self-cleavage kobs at 2500 uM GlcN6P” value is 4.36e-05 ± 8e-06 s⁻¹. Besides, the “self-cleavage kobs at 10000 uM GlcN6P” value in the data set with glucosamine-6-phosphate [4] is 9.18e-05 ± 1e-05 s⁻¹.

With A39G C67G, the kcat with glucosamine-6-phosphate [1] stood at 0.00311 ± 0.00098 s⁻¹. The KM with glucosamine-6-phosphate [2] came out at 602 ± 300 µM. Also, in the data set with glucosamine-6-phosphate [7], the “self-cleavage kobs at 40 uM GlcN6P” value was 0.000189 ± 4.5e-05 s⁻¹. Also, the “self-cleavage kobs at 160 uM GlcN6P” value with glucosamine-6-phosphate [5] was 0.000603 ± 0.00015 s⁻¹. Besides, the “self-cleavage kobs at 640 uM GlcN6P” value with glucosamine-6-phosphate [6] turned out to be 0.00174 ± 0.00035 s⁻¹. The “self-cleavage kobs at 2500 uM GlcN6P” value in the data set with glucosamine-6-phosphate [3] was determined as 0.00535 ± 0.0012 s⁻¹. In addition, the “self-cleavage kobs at 10000 uM GlcN6P” value with glucosamine-6-phosphate [4] amounted to 0.00223 ± 0.00066 s⁻¹.

Consider A5U, for which, in the data set with glucosamine-6-phosphate [1], the kcat is 0.0156 ± 0.0027 s⁻¹. Also, the KM with glucosamine-6-phosphate [2] was 661 ± 170 µM. For the same variant, the “self-cleavage kobs at 40 uM GlcN6P” value with glucosamine-6-phosphate [7] was 0.000961 ± 0.00015 s⁻¹. The “self-cleavage kobs at 160 uM GlcN6P” value in the data set with glucosamine-6-phosphate [5] came to 0.00247 ± 0.00049 s⁻¹. In the data set with glucosamine-6-phosphate [6], the “self-cleavage kobs at 640 uM GlcN6P” value came to 0.00869 ± 0.0012 s⁻¹. The “self-cleavage kobs at 2500 uM GlcN6P” value with glucosamine-6-phosphate [3] was 0.0143 ± 0.0042 s⁻¹. Also, the “self-cleavage kobs at 10000 uM GlcN6P” value with glucosamine-6-phosphate [4] is 0.0129 ± 0.003 s⁻¹.

In the case of G66U U69G, the kcat with glucosamine-6-phosphate [1] worked out at 3.26e-05 ± 1.2e-05 s⁻¹. Besides, in the data set with glucosamine-6-phosphate [6], the “self-cleavage kobs at 640 uM GlcN6P” value stood at 5.52e-05 ± 2.5e-05 s⁻¹. For the same variant, the “self-cleavage kobs at 2500 uM GlcN6P” value with glucosamine-6-phosphate [3] was determined as 4.9e-05 ± 2.2e-05 s⁻¹.
